Data: US20120189542A1 (published 2012)

Target: T1, human CD19 on CD19+ human lymphoma cells (Raji, Daudi, Ramos) (human, UniProt P15391 20-556)
T1 construct: whole, on cells; The target is presented on cells; also called CD19 antigen; CD19 molecule
T1 sequence (looked up): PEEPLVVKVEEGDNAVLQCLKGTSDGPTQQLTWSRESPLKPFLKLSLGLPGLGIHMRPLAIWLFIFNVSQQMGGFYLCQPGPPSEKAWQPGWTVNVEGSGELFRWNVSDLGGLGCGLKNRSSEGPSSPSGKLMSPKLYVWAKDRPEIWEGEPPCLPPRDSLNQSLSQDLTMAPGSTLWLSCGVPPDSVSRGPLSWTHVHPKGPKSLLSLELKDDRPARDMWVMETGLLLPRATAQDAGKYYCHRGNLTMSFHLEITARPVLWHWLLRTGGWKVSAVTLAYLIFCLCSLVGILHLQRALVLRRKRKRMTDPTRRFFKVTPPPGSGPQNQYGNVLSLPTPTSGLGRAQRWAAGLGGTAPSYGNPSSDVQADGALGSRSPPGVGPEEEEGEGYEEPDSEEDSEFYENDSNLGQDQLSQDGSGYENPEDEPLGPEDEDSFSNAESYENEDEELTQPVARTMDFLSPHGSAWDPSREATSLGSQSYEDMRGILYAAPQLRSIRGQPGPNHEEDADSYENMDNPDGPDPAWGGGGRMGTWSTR
Assay: direct cell surface binding of 125I-labeled antibody to Raji cells, Scatchard plot analysis

B1: humanized anti-CD19 antibody hA19 (antibody, V domains shown)
VH: QVQLQQSGAEVKKPGSSVKVSCKASGYAFSSYWMNWVRQRPGQGLEWIGQIWPGDGDTNYNGKFKGRATITADESTNTAYMELSSLRSEDTAFYSCARRETTTVGRYYYAMDYWGQGTTVTVSS
VL: DIQLTQSPSSLSASVGDRVTITCKASQSVDYDGDSYLNWYQQIPGKAPKLLIYDASNLVSGIPPRFSGSGSGTDYTFTISSLQPEDIATYHCQQSTEDPWTFGGGTKLQIKR
notes: It was expressed from pdHL2, which carries human IgG heavy and light chain constant regions (IgG1 per the general description); also called humanized A19 antibody
- Kd: 1.1 nM
